Measurements taken from patent publication US20050287150A1 (UNIVERSITY OF MASSACHUSETTS, published 2005).
Positions count from the first letter of the chain named.

Experiments:
[1] = molecular target: toxin A subfragment amino acids 1-415 (Clostridium difficile, UniProt P16154 1-415); assay: western blot on toxin A subfragments
[2] = molecular target: toxin A subfragment amino acids 1-290 (Clostridium difficile, UniProt P16154 1-290); assay: western blot on toxin A subfragments
[3] = molecular target: toxin A subfragment amino acids 1-165 (Clostridium difficile, UniProt P16154 1-165); assay: western blot on toxin A subfragments
[4] = molecular target: T1, C. difficile toxin A (Clostridium difficile, UniProt P16154 1-2710); assay: ELISA, 1 ug/ml Toxin A coat, O.D. 405 nm
[5] = molecular target: T1, C. difficile toxin A; assay: SPR (Biacore), antibody on protein A-coated chip, toxin A flowed over
[6] = molecular target: T1, C. difficile toxin A; assay: ELISA, 1 ug/ml Toxin A coat, O.D. 405 nm, four-parameter fit
[7] = molecular target: toxin A subfragment amino acids 660-920 (Clostridium difficile, UniProt P16154 660-920); assay: western blot on toxin A subfragments
[8] = molecular target: toxin A subfragment amino acids 660-807 (Clostridium difficile, UniProt P16154 660-807); assay: western blot on toxin A subfragments

B1: human monoclonal antibody produced by hybridoma clone 1B11 (antibody, V domains shown)
VH: QMQLVESGGGVVQPGRSLRLSCEASGFSFNSYGMHWVRQAPGKGLEWVSVIWASGNKKYYIESVEGRFTISRDNSKNTLYLQMNSLRAEDTAVYYCARANFDYWGQGTLVTVSS
VL: EIVLTQSPATLSLSPGERATLSCRASQSVSSYLAWYQQKPGQAPRLLIYDASNRATGIPARFSGSGSGTDFTLTISSLEPEDFAVYYCQQRSNWSQFTFGPGTKVDIK
notes: also called HuMAb 1B11
- binding result [1]: no binding
- binding result [2]: no binding
- binding result [3]: no binding
- EC50 (read off the curve) [4]: ~2 ng/mL
- Kd [5]: 0.738 nM
- A (lower asymptote of the four-parameter fit) [6]: 0.203 O.D. 405 nm
- D (upper asymptote of the four-parameter fit) [6]: 3.58 O.D. 405 nm
- EC50 [6]: 2 ng/mL

B2: human monoclonal antibody produced by hybridoma clone 3D8 (antibody, V domains shown)
VH: QVQLVESGGGVVQPGRSLRLSCAASGFSFSNYGMHWVRQAPGKGLEWVALIWYDGSNEDYTDSVKGRFTISRDNSKNTLYLQMNSLRAEDTAVYYCARWGMVRGVIDVFDIWGQGTVVTVSS
VL: DIQMTQSPSSVSASVGDRVTITCRASQGISSWLAWYQHKPGKAPKLLIYAASSLQSGVPSRFSGSGSGTDFTLTISSLQPEDFATYYCQQANSFPWTFGQGTKVEIK
notes: also called HuMAb 3D8
- Kd [5]: 1.46 nM
- A (lower asymptote of the four-parameter fit) [6]: 0.173 O.D. 405 nm
- D (upper asymptote of the four-parameter fit) [6]: 3.66 O.D. 405 nm
- EC50 [6]: 4 ng/mL

B3: human monoclonal antibody produced by hybridoma clone 33.3H2 (antibody, V domains shown)
VH: QVQLVESGGGVVQPGRSLRLSCAASGFTFNKYGMHWVRQAPGKGLEWVAVIWYDGTNKYYADSMKGRFTISRDNSKNMLYLQMNSLRAEDTAVYYCARDPPTANYWGQGTLVTVSS
VL: B2 VL with V11L, H38Q, G41E, L46S, A91Y, N92K, F94Y, W96V, Q100G
- binding result [7]: no binding
- binding result [8]: no binding
- A (lower asymptote of the four-parameter fit) [6]: 0.172 O.D. 405 nm
- D (upper asymptote of the four-parameter fit) [6]: 3.7 O.D. 405 nm
- EC50 [6]: 5 ng/mL
